IntAct's records for PubMed 21157427

B1: Serine/arginine-rich splicing factor 2 (Homo sapiens), Q01130 (parent)
chain: MSYGRPPPDVEGMTSLKVDNLTYRTSPDTLRRVFEKYGRVGDVYIPRDRYTKESRGFAFVRFHDKRDAEDAMDAMDGAVLDGRELRVQMARYGRPPDSHHSRRGPPPRRYGGGGYGRRSRSPRRRRRSRSRSRSRSRSRSRSRYSRSKSRSRTRSRSRSTSKSRSARRSKSKSSSVSRSRSRSRSRSRSRSPPPVSKRESKSRSRSKSPPKSPEEEGAVSS

Variants of: B1
Conditions: with kat5_human KAT5, Q92993
Chain of kat5_human KAT5, Q92993 (Q92993 whole entry, looked up): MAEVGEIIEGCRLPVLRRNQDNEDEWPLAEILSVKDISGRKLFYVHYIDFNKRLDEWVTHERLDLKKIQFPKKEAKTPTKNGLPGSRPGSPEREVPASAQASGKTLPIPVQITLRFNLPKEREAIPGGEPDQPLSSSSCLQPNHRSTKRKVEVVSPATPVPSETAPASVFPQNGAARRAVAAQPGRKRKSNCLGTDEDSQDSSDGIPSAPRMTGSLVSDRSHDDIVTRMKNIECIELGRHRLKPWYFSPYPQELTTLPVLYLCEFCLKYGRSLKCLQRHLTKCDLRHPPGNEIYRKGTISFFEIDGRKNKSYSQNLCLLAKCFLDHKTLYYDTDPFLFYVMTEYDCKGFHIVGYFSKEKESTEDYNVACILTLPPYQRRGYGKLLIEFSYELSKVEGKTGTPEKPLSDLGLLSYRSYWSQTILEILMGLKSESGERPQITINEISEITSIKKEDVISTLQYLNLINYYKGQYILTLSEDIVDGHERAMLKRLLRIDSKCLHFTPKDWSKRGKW

effect of a mutation on the interaction	Variant
disrupting interaction	MSYGRPPPDVEGMTSLKVDNLTYRTSPDTLRRVFEKYGRVGDVYIPRDRYTRESRGFAFVRFHDKRDAEDAMDAMDGAVLDGRELRVQMARYGRPPDSHHSRRGPPPRRYGGGGYGRRSRSPRRRRRSRSRSRSRSRSRSRSRYSRSKSRSRTRSRSRSTSKSRSARRSKSKSSSVSRSRSRSRSRSRSRSPPPVSKRESKSRSRSKSPPKSPEEEGAVSS [K52R]
